Measurements reported in patent US20220025021A1 (BETH ISRAEL DEACONESS MEDICAL CENTER, published 2022).
Substitutions are numbered along the chain they refer to.

B1: MS-88 (antibody, V domains shown)
VH: QVQLVQSGPEVRKPGTSVKVSCKASGYTFKTYDLHWVRSVPGQGLQWMGWISHEGDKKVIVERFKAKVTITRDRSTNTAYLQLSGLTSGDTAVYYCAKGSKHRLRDYALYDDDGALNWAVDVDYLSNLEFWGQGTAVTVSS
VL: DFVLTQSPHSLSVTPGESASISCKSSHSLIHGDRNNYLAWYVQKPGRSPQLLIYLASSRASGVPDRFSGSGSDKDFTLKISRVETEDVGTYYCMQGRESPWTFGQGTKVDIKR
B2: MS-89 (antibody, V domains shown)
VH: B1 VH with S25P, F29L, R72W
VL: B1 VL with H9L
B3: MS-90 (antibody)
VH: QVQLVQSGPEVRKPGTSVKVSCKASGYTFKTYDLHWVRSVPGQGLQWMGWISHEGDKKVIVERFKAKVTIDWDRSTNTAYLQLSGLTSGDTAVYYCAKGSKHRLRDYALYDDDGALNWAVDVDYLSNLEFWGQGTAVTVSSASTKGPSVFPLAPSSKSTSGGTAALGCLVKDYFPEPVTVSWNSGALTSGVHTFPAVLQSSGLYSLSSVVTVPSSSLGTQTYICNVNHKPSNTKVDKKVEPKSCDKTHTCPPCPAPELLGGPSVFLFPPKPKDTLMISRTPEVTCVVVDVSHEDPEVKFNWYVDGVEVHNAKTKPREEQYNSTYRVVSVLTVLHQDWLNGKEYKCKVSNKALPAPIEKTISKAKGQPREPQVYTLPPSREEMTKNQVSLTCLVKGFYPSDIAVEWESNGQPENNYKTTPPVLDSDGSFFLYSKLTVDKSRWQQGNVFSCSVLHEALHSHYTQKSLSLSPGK
VL: DFVLTQSPLSLSVTPGESASISCKSSHSLIHGDRNNYLAWYVQKPGRSPQLLIYLASSRASGVPDRFSGSGSDKDFTLKISRVETEDVGTYYCMQGRESPWTFGQGTKVDIKRTVAAPSVFIFPPSDEQLKSGTASVVCLLNNFYPREAKVQWKVDNALQSGNSQESVTEQDSKDSTYSLSSTLTLSKADYEKHKVYACEVTHQGLSSPVTKSFNRGEC
B4: MS-91 (antibody, V domains shown)
VH: B1 VH with F29L, T71D, R72W
VL: B1 VL with H9L, K74T
B5: MS-92 (antibody, V domains shown)
VH: B1 VH with S25P, Y27N, F29L, Q46E, T71D, T87R
VL: B1 VL with F2I

biological target: HIV-1 Env of pseudovirus SC422661.8 (HIV-1); test: cell-based or functional assay

Row | Binder | neutralization IC50 [µg/mL] | neutralization IC80 [µg/mL]
1 | B1 | 1.41 | > 25
2 | B2 | 0.786 | > 25
3 | B3 | 1.48 | > 25
4 | B4 | 1.66 | 22.1
5 | B5 | 1.53 | > 25

biological target: HIV-1 Env of pseudovirus 0260.v5.c36 (HIV-1); test: cell-based or functional assay

Row | Binder | neutralization IC50 [µg/mL] | neutralization IC80 [µg/mL]
6 | B1 | 0.178 | 1.51
7 | B2 | 0.036 | 0.197
8 | B3 | 0.03 | 0.168
9 | B4 | 0.046 | 0.171
10 | B5 | 0.044 | 0.35

biological target: HIV-1 Env of pseudovirus CNE52 (HIV-1); test: cell-based or functional assay

Row | Binder | neutralization IC50 [µg/mL] | neutralization IC80 [µg/mL]
11 | B1 | 5.86 | > 25
12 | B2 | 2.34 | 23.8
13 | B3 | 1.05 | 8.56
14 | B4 | 1.41 | 10.6
15 | B5 | 3.92 | > 25

biological target: HIV-1 Env of pseudovirus BB1012-11.TC21 (HIV-1); test: cell-based or functional assay

Row | Binder | neutralization IC50 [µg/mL] | neutralization IC80 [µg/mL]
16 | B1 | 0.02 | 0.088
17 | B2 | 0.032 | 0.143
18 | B3 | 0.044 | 0.204
19 | B4 | 0.037 | 0.17
20 | B5 | 0.029 | 0.127

biological target: HIV-1 Env of pseudovirus RHPA4259.7 (HIV-1); test: cell-based or functional assay

Row | Binder | neutralization IC50 [µg/mL] | neutralization IC80 [µg/mL]
21 | B1 | 0.504 | 2.51
22 | B2 | 0.29 | 1.04
23 | B3 | 0.254 | 1.33
24 | B4 | 0.267 | 1.82
25 | B5 | 0.25 | 1.16

biological target: HIV-1 Env of pseudovirus Du172.17 (HIV-1); test: cell-based or functional assay

Row | Binder | neutralization IC50 [µg/mL] | neutralization IC80 [µg/mL]
26 | B1 | > 25 | > 25
27 | B2 | 11.9 | > 25
28 | B3 | 4.07 | 15.6
29 | B4 | 3.85 | 23.9
30 | B5 | 6.85 | > 25
